Experimental data taken from patent US8344120B2, “Nucleic acid molecules encoding rage fusion proteins” (TransTech Pharma, Inc., priority 2006, dated 2013).
“And” between values parts separate entries of the source, which are not always exact repeats. Equal values may be shown once.

Tests used:
[1] = system: diabetic rat model of restenosis; assay: Diabetic rat model of restenosis; assay type: in vivo, rats; details: for Intimal area / Medial area: IP, 21 days
Experimental: Use of the RAGE fusion proteins in the treatment of diabetes related pathology is illustrated in FIG. 14.
In these experiments, balloon injury of left common carotid artery was performed in Zucker diabetic and nondiabetic rats using standard procedure. […] A maintenance dose was delivered every other day until day 7 after injury (i.e., at day 1, 3, 5 and 7 after injury). The maintenance dose was high=1 mg/animal for one group, or low=0.3 mg/animal for the second group. To measure vascular smooth muscle cell (VSMC) proliferation, animals were sacrificed at 4 days and 21 days after injury.
For the measurement of cell proliferation, 4 day animals received intraperitoneal injection of bromodeoxyuridine (BrDdU) 50 mg/kg at 18, 12, and 2 hours before euthanasia. After sacrifice, the entire left and right carotid arteries were harvested. Specimens were stored in Histochoice for at least 24 hours before embedding. Assessment of VSMC proliferation was performed using mouse anti-BrdU monoclonal antibody. A fluorescence labeled goat anti-mouse secondary antibody was applied. The number of BrdU-positive nuclei per section were counted by two observers blinded to the treatment regimens.
The remaining rats were sacrificed at 21 days for morphometric analysis. Morphometric analyses were performed by an observer blinded to the study groups, using computerized digital microscopic planimetry software Image-Pro Plus on serial sections, ([…]) carotid arteries stained by Van Gieson staining. All data were expressed as mean±SD. Statistical analysis was performed with use of SPSS software. Continuous variables were compared using unpaired t tests. A values of P≦0.05 was considered to be statistically significant.
In FIG. 14B, the y-axis represents the number of BrdU proliferating cells.

[2] = system: recurrent diabetes in syngeneic NOD transplant model; assay: Syngeneic islet transplantation in NOD mice; assay type: in vivo
From the text: Spontaneous autoimmune non-obese diabetic mice (NOD/LtJ) (12-25 weeks old) served as recipients for islet cells, while young pre-diabetic NOD/LtJ mice (6-7 weeks old) served as donors in syngeneic islet transplantation. Islets for transplantation were isolated as described above in Section A (Allogeneic Islet Transplantation). Diabetic NOD/LtJ mice received islet grafts within 2 days of the diagnosis of diabetes. 500-600 freshly isolated islets (approximately 550 islet equivalents) from donor mice were picked up with an infusion set and transplanted into the subcapular space of the right kidney. Test compounds were administered as soon as the islets were transplanted and continued for approximately 8 weeks. […] Islet graft function was monitored by serial blood glucose measurements daily for the first 2 weeks after islet transplantation, followed by every other day thereafter. Reversal of diabetes was defined as blood glucose less than 200 mg/dl on two consecutive measurements. Percentage graft loss was determined when blood glucose exceeded 250 mg/dl on two consecutive measurements.

[3] = High dose 1.0 mg/animal qod × 4, loading dose 3 mg/animal
[4] = Low dose 0.3 mg/animal qod × 4, loading dose 3 mg/animal
[5] = 300 ug LD + 100 ug qod ip, syngeneic islets in NOD mice

B1: TTP-4000: four domain RAGE fusion protein: human RAGE N-terminal sequence (to position 251) linked to human IgG Fc (γ1) without hinge; SEQ ID NO: 34/56 (protein)
chain: QNITARIGEPLVLKCKGAPKKPPQRLEWKLNTGRTEAWKVLSPQGGGPWDSVARVLPNGSLFLPAVGIQDEGIFRCQAMNRNGKETKSNYRVRVYQIPGKPEIVDSASELTAGVPNKVGTCVSEGSYPAGTLSWHLDGKPLVPNEKGVSVKEQTRRHPETGLFTLQSELMVTPARGGDPRPTFSCSFSPGLPRHRALRTAPIQPRVWEPVPLEEVQLVVEPEGGAVAPPSVFLFPPKPKDTLMISRTPEVTCVVVDVSHEDPEVKFNWYVDGVEVHNAKTKPREEQYNSTYRVVSVLTVLHQDWLNGKEYKCKVSNKALPAPIEKTISKAKGQPREPQVYTLPPSRDELTKNQVSLTCLVKGFYPSDIAVEWESNGQPENNYKTTPPVLDSDGSFFLYSKLTVDKSRWQQGNVFSCSVMHEALHNHYTQKSLSLSPGK
vascular smooth muscle cell proliferation (BrdU-positive nuclei) ([1]; 4 days after injury, dose-responsive): significantly reduced | Intimal area [1, 3]: 0.16 ± 0.02 mm^2 | Medial area [1, 3]: 0.11 ± 0.01 mm^2 | Intimal area [1, 4]: 0.18 ± 0.04 mm^2 | Medial area [1, 4]: 0.11 ± 0.02 mm^2 | day of graft loss for each animal [2, 5]: 40 day and 43 day and 36 day and 45 day and 44 day and 38 day (2×) and 35 day | day of graft loss, Mean [2, 5]: 39.875 days | time before detection of graft failure, in words ([2]; versus animals not treated at all): increase in the time before detection of graft failure
